Test results published in the DeepSol protein solubility set.

assay: soluble on expression in E. coli; label from the status in PepcDB or PDB records

Sequence | soluble on expression in E. coli
ASQPLIQDPVLIEYINHLGNSLVKNAQGVNYAFEFFLINNNELNAFAFFGGHVGIHSGLITTADTESELASVIAHEISHVTQRHLARRLESQSQTQGLTMAAMLSSVLITLVNPTVGIAALSASMAVTQQASINYTRGNEKEADRVGIALLASSNYDPQGAASFFSKMSTKYRYASKPPAMLLTHPLPESRIADARQRALNYPARPLPPSLGFELTKARLKSRYQGEAKSNISFFKLQLEKKRYAIKAAAQYGLALSYFENKQTSEALQLLEMLEKNDKDNLFYVDALTDVYIANNQANKAIKMLERLNLFMPNNQVVSLNYANALLSVKEYDLAAQILQDFLLVNPGNFIAYDILTTLYRTQEKTGLMHMSKAEVYALLGAYPKAVDELQTSYAFLDEQPLMQK | not soluble
ATDVIAQRKAILKQMGEATKPIAAMLKGEAKWDQAVVQKSLAAIADDSKKLPALFPADSKTGGDTAALPKIFEDKAKFDDLFAKLAAAATAAQGTIKDEASLKANIGGVLGNCKSCHDDFRAKKS | soluble
ATGAAAAAATCAATCCTCAAATCTGTGTTAGCGTCTTCTATTACGCTTTCTATCACGCTAAGCAGCACTGCTTTCGCCTCTCCTATCGTGACACCAGACGCACCACAAATTGCCGCTAAAGGCTATGTACTGATGGATTACCATTCAGGAAAAGTGTTGGCTGAAAAAGAGATGGATACCAAACTCTCTCCTGCCAGCCTAACCAAGATGATGACCAGTTACGTGATCGGTCAAGAAGTAAAGCGTGGCAACATCTCGCTAAATGACGATGTCGTGATCAGCAAAAATGCTTGGGCGAAAAACTTCCCTGATTCTTCGAAAATGTTCGTTGAAGTCGGTACCACGGTTAAGGTCAGCGATCTCAACCGCGGCATCATCATCCAATCGGGTAATGATGCGTGTGTAGCGATGGCAGAGCACGTCGCAGGGACGGAAGATGCGTTTGTTGACCTGATGAACGCTTGGGCAAGCTCACTTGGGATGAAGAATTCGCACTTCACTAACTCTCACGGTTTGGACGATCCTAATCTTTACTCTACGCCATACGATCTGGCTCTACTTGGCCAAGCTCTGATCCGTGAWGTGCCTGAAGAGTACGCGATCTACTCCGAGCAAAAATTCACCTACAACGGCATCACTCAATACAACCGTAACGGTTTGCTTTGGGATAAAAGCATGAATGTGGACGGCATTAAAACCGGACATACGAGTGGTGCTGGCTATAACCTCGTGAGCTCTGCTACAGAAGGCAACATGCGCTTGGTTGCGGTGGTGATGGGTACTGACAACGAAAACGCGCGTAAAGCGGAAAGTAAGAAGCTACTGAGCTACGGTTTCCGCTTCTTTGAAACCGTGGCACCACACAAAGCGGGTGAAACTTTCGTGAATGAAACCATCTGGATGGGCGATAAAGACACGATTGCACTCGGTGTTGATAAAGATACTTACGTAACTTTGCCACGCGGACAGGCCAAAGATCTCACCGCCAGCTTTGTACTTGAAAAACAATTGAAAGCACCGCTGAAGAAAGGCGATATCGTCGGCACACTTTACTATCAATTAGCTGGTAACGATATTGCTCAATACCCATTGCTCGCACTGGAAGATGTGCAAGAAGGCAGCCTATTTAGCCGCCTATGGGATTACTTGGTTCTGCTGTTCAAAAGCTGGTTTTAA | not soluble
ATHEVHMLNKGESGAMVFEPAFVRAEPGDVINFVPTDKSHNVEAIKEILPEGVESFKSKINESYTLTVTEPGLYGVKCTPHFGMGMVGLVQVGDAPENLDAAKTAKMPKKARERMDAELAQVN | soluble
ATMPLSPLLTAVIETTLNTLINDDPALGRKLLRLKGKVISLHLRELNQSLTFVFSQRIDVMTGFEGQPDCYLALNLSILPQLREQANITQLIKQDKLELEGDIQLAQKFSELMTDCKPDVEEWLSRITGDVVAHSVVHGVKSIVGALKQQAHKHQNHLAQVLTEEWRIAPPPLEIAYFCDQVDDVKSHAARLEARLNQLLEKA | not soluble
ATRVQAAQKEPASDVSDKLEQIREEIAKDPQSVFKYITISPVKKDDAIIGYRVSPGRDAALFNDVGLEPGDIAVQLNGIDLSDPSSSVQLMQVMSDPQELNLTVERDGQQYDIYIQL | not soluble
AVANATELVNKISENCFEKCLTSPYATRNDACIDQCLAKYMRSWNVISKAYISRIQNASASGEI | soluble
AVQRAKEVLEEISCYPENNDAKELKRILTQPHFMALLQTHDVVAHEVYSD | soluble
AVSGIRQSLISRKALTLFKTVLPAMSQTEKEALDAGTVWWEAELFKGKPEWEKLHAIQAPKLSAEERAFLDGPVNEVCAMVSDFQVTHELADLPPEVWQYLKDNKFFAMIIK | not soluble
AYTTFSQTKNDQLKEPMFFGQPVNVARYDQQKYDIFEKLIEKQLSFFWRPEEVDVSRDRIDYQALPEHEKHIFISNLKYQTLLDSIQGRSPNVALLPLISIPELETWVETWAFSETIHSRSFTHIIRNIVNDPSVVFDDIVTNEQIQKRAEGISSYYDELIEMTSYWHLLGEGTHTVNGKTVTVSLRELKKKLYLCLMSVNALEAIRAYVSFACSFAFAERELMEGNAKIIRLIARDEALHLTGTQHMLNLLRSGADDPEMAEIAEECKQECYDLFVQAAQQEKDWADYLFRDGSMIGLNKDILCQYVEYITNIRMQAVGLDLPFQTRSNPIPWINTWLVSDNVQVAPQEVEVSSYLVGQIDSEVDTDDLSNFQL | soluble
CGPQYRFVWKGGEGGIGDAANALDSGKIIAIKGIGGYHIACLTEDDVVLRLRKLLNRPQQPFAVMVRDLSSAERVAELSNEERAELLSPARPIVVVRKKLPFEAVAPELDTIGIMLPYTPLHHLLFQELKADYLVMTSANLPGEPMYIDESIMEKMELDGFLVHNLEIANRVDDSVVKYVGGRRLLIRRSRGFVPQPIKIDIGFN | not soluble
CQDYIPVKDQKVVDLMSRDVVAIDASDRLVDVVEFLCIDKEQLYPTSSMGIATRLTSLSLEERAKSMKVSKPQVLPVLENGQMVGVVTRQEVLKALRPVFGERLNLVEDKALETA | not soluble
DAETFHKDELDLAYDRISQQFDTDMGGMNKAPKFPMPSIYLYLLRDYALTGRQGSLQHVELTLDKMAMGGIYDTIGGGFARYSVDGAWFAPHFEKMLYDNGQLLSLYSEAYTVTKKPLYKEVIEETYTWLKREMLSPEGGFYSALDADSEGVEGKFYCWQYEELAQLIQEDFALFCAYYAITENGNWEHGMNILYKRMSDEAFAAAHSISAEALRESVSRWKNILFSERDPREHPGLDDKILASWNGIMLKGLCDAYRILGDAAILNTALMNAEFILTKLYDGKTLFHSYKNKKATIPGFLEDYTHVIDGYLALYEVSLDEQWLRQAITLVNHVIDHFYDDDEGLFFYTSRTSEKLIARKKEIFD | not soluble
DALAVALLQARGFSAEDFALSHPGGALGRKLLLKLSDIMHFGNALPKVSPDALIRDALLEISEKGLGMTAIVDEHDAMLGIFTDGDLRRTLDKRIDIHTTAIGEVMTKNPTTAHPEMLAVEGLNLMQNKNINALILCKEDKIVGALNMHDLLKAGVM | not soluble
DDAAIKRKLQSFNISNIVIKSSPISGIKTAVTDQGILYVSEDGKYLFEGKLYELTNNGPVDVAGKILVDKLNSYKDEMIVYPAKNEKHVVTVFMDITCHYCHLLHQQLKEYNDLGITVRYLAFPRAGMNNQTAKQMEAIWTAKDPVFALNEAEKGNLPKEVKTPNIVKKHYELGIQFGVRGTPSIVTSTGELIGGYLKPADLLRALEETAQ | soluble
DDGSNEDTKQALSALSEQGLIKLISLSENQGKGGAVMAGLHQAHQLGFTHTIQIDADGQHDLEALPKLLSASETKPDNLISGQPIYDESVPKARLYGRYATHIWVWIETLSLSIKDSMCGFRAYPVAKTVAVLNKYNIGKRMDFDIEILVRMYWEGVDIDFVPTRVIYPEGGISHFDALWDNVKISWMHTRLFFGMLPRIPSLLARKRRHTDDSNAHWSKRKEQGTILGIKTLLAVYRLFGRKAFDLILKLVMRYYHFTGKSAREASEIYLQNLQRYAAQQNIALPKQLDSYHHLLSFGRTMLDKLAAWQGDFNVDNLTIHGQHHFEEMAQKKQGVLILGSHLGNIELCRALGRRHSHVKINALVFTQHAEQFNAVMKAVNPNSELNLIQVSSMGPDTAILLQQKIEQGEWVVIVGDRTSTSKENRVVWADFLGKPAPFPQGP | not soluble
DEETKAFEALLSNIVKPVASDIQARTVVLTWSPPSSLINGETDESSVPELYGYEVLISSTGKDGKYKSVYVGEETNITLNDLKPAMDYHAKVQAEYNSIKGTPSEAEIFTTLSCEPDIPNPPRI | soluble
